This is an account of results in the supplement of paper PMC9112550, “Optimization of the antimicrobial peptide Bac7 by deep mutational scanning” (BMC Biology, 2022).

This series has as its system Escherichia coli TOP10. As to the kind of experiment: shrunken log2 fold change of peptide-encoding DNA abundance (4.5 h post-induction vs induction); higher = less antimicrobial activity (less host growth inhibition). The conditions noted are these: time post-induction: 4.5 h; library: site-saturation at positions 5, 18, 19, 20.
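Further: peptides expressed intracellularly from a pBAD plasmid library in pooled LB shake-flask culture, induced with 0.3% L-arabinose, DNA abundance read by NGS, three biological replicates, DESeq2 with apeglm shrinkage.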

In the case of RRIRHRPPRLPRPRPRPNKYPRP, the “shrunken log2 fold change” value is -0.782.

With RRIRIRPPRLPRPRPRPFIKPRP, the “shrunken log2 fold change” value is -0.913.

For the sequence RRIRYRPPRLPRPRPRPMGTPRP, the “shrunken log2 fold change” value is -0.304.

On to RRIRMRPPRLPRPRPRPPVCPRP, for which the “shrunken log2 fold change” value stood at 0.439.

Turning to RRIRSRPPRLPRPRPRPNSTPRP, the “shrunken log2 fold change” value was -0.573.

With RRIRFRPPRLPRPRPRPFASPRP, the “shrunken log2 fold change” value was -0.705.

Turning to RRIRPRPPRLPRPRPRPHAYPRP, the “shrunken log2 fold change” value was -0.317.

For RRIRDRPPRLPRPRPRPFRTPRP, the “shrunken log2 fold change” value was -0.0508.

As to RRIRTRPPRLPRPRPRPLCQPRP, the “shrunken log2 fold change” value is -0.0705.

Regarding RRIRCRPPRLPRPRPRPYNYPRP, the “shrunken log2 fold change” value is -0.914.

Take RRIRMRPPRLPRPRPRPPYAPRP: the “shrunken log2 fold change” value came out at 0.291.

Regarding RRIRMRPPRLPRPRPRPYDNPRP, the “shrunken log2 fold change” value was found to be 0.213.

In the case of RRIRERPPRLPRPRPRPLKDPRP, the “shrunken log2 fold change” value was -0.0646.

With RRIRARPPRLPRPRPRPIPCPRP, the “shrunken log2 fold change” value amounted to 0.0669.

As for RRIRLRPPRLPRPRPRPKDGPRP, the “shrunken log2 fold change” value was -0.0687.

Take RRIRFRPPRLPRPRPRPMHMPRP: the “shrunken log2 fold change” value was -0.011.

Take RRIRIRPPRLPRPRPRPIEPPRP: the “shrunken log2 fold change” value came out at 0.0377.

In the case of RRIRGRPPRLPRPRPRPSRRPRP, the “shrunken log2 fold change” value is 0.647.

Turning to RRIRCRPPRLPRPRPRPYYQPRP, the “shrunken log2 fold change” value is -1.14.

For the sequence RRIRVRPPRLPRPRPRPFYQPRP, the “shrunken log2 fold change” value is -0.537.

RRIRARPPRLPRPRPRPTRWPRP: the “shrunken log2 fold change” value is 0.539.

RRIRDRPPRLPRPRPRPGCKPRP: the “shrunken log2 fold change” value was 0.0398.

On to RRIRSRPPRLPRPRPRPVEPPRP, for which the “shrunken log2 fold change” value is -0.0608.

Consider RRIRQRPPRLPRPRPRPSIQPRP, for which the “shrunken log2 fold change” value is -0.13.

For RRIRPRPPRLPRPRPRPEQKPRP, the “shrunken log2 fold change” value worked out at 0.000209.

As for RRIRGRPPRLPRPRPRPRLAPRP, the “shrunken log2 fold change” value came out at 1.35.

For the sequence RRIRHRPPRLPRPRPRPTPFPRP, the “shrunken log2 fold change” value came out at 0.177.

For the sequence RRIRCRPPRLPRPRPRPCAHPRP, the “shrunken log2 fold change” value turned out to be 0.0631.

As to RRIRYRPPRLPRPRPRPFDCPRP, the “shrunken log2 fold change” value is -0.0565.

For RRIRMRPPRLPRPRPRPCQAPRP, the “shrunken log2 fold change” value worked out at 0.0538.

With RRIRTRPPRLPRPRPRPIYIPRP, the “shrunken log2 fold change” value was -0.949.

On to RRIRGRPPRLPRPRPRPWHQPRP, for which the “shrunken log2 fold change” value worked out at 1.75.

On to RRIRYRPPRLPRPRPRPLTWPRP, for which the “shrunken log2 fold change” value was -0.333.

Consider RRIRSRPPRLPRPRPRPKCLPRP, for which the “shrunken log2 fold change” value is 0.0157.

As for RRIRPRPPRLPRPRPRPATGPRP, the “shrunken log2 fold change” value was 0.0771.

With RRIRIRPPRLPRPRPRPCDHPRP, the “shrunken log2 fold change” value is -0.752.

On to RRIRLRPPRLPRPRPRPGNVPRP, for which the “shrunken log2 fold change” value stood at 0.0636.

As to RRIRYRPPRLPRPRPRPFIDPRP, the “shrunken log2 fold change” value is -0.018.

RRIRQRPPRLPRPRPRPMAIPRP: the “shrunken log2 fold change” value is -0.326.

Regarding RRIRMRPPRLPRPRPRPHRYPRP, the “shrunken log2 fold change” value was -0.144.

In the case of RRIRKRPPRLPRPRPRPTLHPRP, the “shrunken log2 fold change” value stood at 0.359.

RRIRHRPPRLPRPRPRPETYPRP: the “shrunken log2 fold change” value is -0.00431.

With RRIRIRPPRLPRPRPRPMAEPRP, the “shrunken log2 fold change” value was -0.0152.

In the case of RRIRDRPPRLPRPRPRPGIRPRP, the “shrunken log2 fold change” value is -0.174.

Turning to RRIRGRPPRLPRPRPRPRTTPRP, the “shrunken log2 fold change” value amounted to 1.06.

With RRIRFRPPRLPRPRPRPEHIPRP, the “shrunken log2 fold change” value is -0.161.

As to RRIRNRPPRLPRPRPRPFEHPRP, the “shrunken log2 fold change” value is 0.0659.

For the sequence RRIRFRPPRLPRPRPRPITMPRP, the “shrunken log2 fold change” value was -0.503.

For RRIRFRPPRLPRPRPRPLVWPRP, the “shrunken log2 fold change” value worked out at 0.0758.

With RRIRARPPRLPRPRPRPYVYPRP, the “shrunken log2 fold change” value was -0.182.

As to RRIRERPPRLPRPRPRPAVHPRP, the “shrunken log2 fold change” value was -0.144.

On to RRIRNRPPRLPRPRPRPIKQPRP, for which the “shrunken log2 fold change” value is -0.0298.

As to RRIRIRPPRLPRPRPRPQFYPRP, the “shrunken log2 fold change” value was -0.945.

As to RRIRIRPPRLPRPRPRPKLYPRP, the “shrunken log2 fold change” value was -0.33.

Take RRIRTRPPRLPRPRPRPILFPRP: the “shrunken log2 fold change” value was -0.209.

RRIRMRPPRLPRPRPRPNWSPRP: the “shrunken log2 fold change” value is -0.18.

Regarding RRIRDRPPRLPRPRPRPLWFPRP, the “shrunken log2 fold change” value was -0.0862.

On to RRIRERPPRLPRPRPRPHFIPRP, for which the “shrunken log2 fold change” value was -0.573.

As to RRIRTRPPRLPRPRPRPSWWPRP, the “shrunken log2 fold change” value was determined as 0.125.

With RRIRDRPPRLPRPRPRPKMCPRP, the “shrunken log2 fold change” value was -0.0407.

In the case of RRIRYRPPRLPRPRPRPKQYPRP, the “shrunken log2 fold change” value is -0.409.

Take RRIRPRPPRLPRPRPRPDNLPRP: the “shrunken log2 fold change” value is -0.35.

For RRIRWRPPRLPRPRPRPIKQPRP, the “shrunken log2 fold change” value is -0.00809.

RRIRDRPPRLPRPRPRPSEVPRP: the “shrunken log2 fold change” value was 0.561.

As for RRIRNRPPRLPRPRPRPALDPRP, the “shrunken log2 fold change” value is 0.113.

Consider RRIRPRPPRLPRPRPRPLHLPRP, for which the “shrunken log2 fold change” value is -0.311.

Regarding RRIRGRPPRLPRPRPRPNVMPRP, the “shrunken log2 fold change” value came out at 0.114.

On to RRIRRRPPRLPRPRPRPTYNPRP, for which the “shrunken log2 fold change” value is -0.267.

For RRIRIRPPRLPRPRPRPAPSPRP, the “shrunken log2 fold change” value turned out to be 0.444.

Regarding RRIRMRPPRLPRPRPRPEEIPRP, the “shrunken log2 fold change” value was 0.0117.

As for RRIRGRPPRLPRPRPRPTEFPRP, the “shrunken log2 fold change” value was 0.327.

On to RRIRVRPPRLPRPRPRPEVDPRP, for which the “shrunken log2 fold change” value worked out at 0.296.

With RRIRNRPPRLPRPRPRPHQHPRP, the “shrunken log2 fold change” value was -0.654.

As for RRIRKRPPRLPRPRPRPPDQPRP, the “shrunken log2 fold change” value worked out at 0.802.

Regarding RRIRCRPPRLPRPRPRPRFDPRP, the “shrunken log2 fold change” value was found to be 0.136.

On to RRIRHRPPRLPRPRPRPFVMPRP, for which the “shrunken log2 fold change” value was -0.281.

As to RRIRIRPPRLPRPRPRPYLGPRP, the “shrunken log2 fold change” value was -0.279.

For the sequence RRIRDRPPRLPRPRPRPVYRPRP, the “shrunken log2 fold change” value is -0.0426.

In the case of RRIRIRPPRLPRPRPRPLKIPRP, the “shrunken log2 fold change” value amounted to 1.44.

RRIRFRPPRLPRPRPRPNAVPRP: the “shrunken log2 fold change” value is -0.0327.

Turning to RRIRGRPPRLPRPRPRPPVYPRP, the “shrunken log2 fold change” value amounted to 0.352.

As to RRIRLRPPRLPRPRPRPVPTPRP, the “shrunken log2 fold change” value was 0.0616.

RRIRQRPPRLPRPRPRPQKRPRP: the “shrunken log2 fold change” value was -0.354.

Take RRIRWRPPRLPRPRPRPCTKPRP: the “shrunken log2 fold change” value is 0.311.

As to RRIRVRPPRLPRPRPRPRRNPRP, the “shrunken log2 fold change” value came to 0.108.

Regarding RRIRMRPPRLPRPRPRPVHRPRP, the “shrunken log2 fold change” value came out at 0.872.

Consider RRIRSRPPRLPRPRPRPDVGPRP, for which the “shrunken log2 fold change” value came out at 0.102.

Regarding RRIRDRPPRLPRPRPRPAGKPRP, the “shrunken log2 fold change” value was 0.0578.

As for RRIRHRPPRLPRPRPRPVIAPRP, the “shrunken log2 fold change” value was -0.134.

Take RRIRERPPRLPRPRPRPSQSPRP: the “shrunken log2 fold change” value was -0.346.

Regarding RRIRGRPPRLPRPRPRPKPNPRP, the “shrunken log2 fold change” value is 1.05.

Take RRIRGRPPRLPRPRPRPLYFPRP: the “shrunken log2 fold change” value was -0.131.

In the case of RRIRVRPPRLPRPRPRPRRSPRP, the “shrunken log2 fold change” value came out at 0.349.

Take RRIRLRPPRLPRPRPRPNNMPRP: the “shrunken log2 fold change” value was -0.703.

Regarding RRIRGRPPRLPRPRPRPHKGPRP, the “shrunken log2 fold change” value is -0.136.

For the sequence RRIRRRPPRLPRPRPRPPTNPRP, the “shrunken log2 fold change” value amounted to 0.643.

In the case of RRIRIRPPRLPRPRPRPQAFPRP, the “shrunken log2 fold change” value was -0.0625.

RRIRVRPPRLPRPRPRPEDQPRP: the “shrunken log2 fold change” value is 0.0356.

As to RRIRSRPPRLPRPRPRPTIYPRP, the “shrunken log2 fold change” value was -0.405.

Regarding RRIRNRPPRLPRPRPRPQLEPRP, the “shrunken log2 fold change” value worked out at 0.307.

RRIRFRPPRLPRPRPRPHRSPRP: the “shrunken log2 fold change” value is -0.222.

Take RRIRIRPPRLPRPRPRPWGHPRP: the “shrunken log2 fold change” value was -0.0191.

RRIRQRPPRLPRPRPRPPMRPRP: the “shrunken log2 fold change” value was 0.862.

Turning to RRIRYRPPRLPRPRPRPPDAPRP, the “shrunken log2 fold change” value was found to be 0.0465.

Regarding RRIRWRPPRLPRPRPRPMFIPRP, the “shrunken log2 fold change” value is -0.378.

Turning to RRIRNRPPRLPRPRPRPRMEPRP, the “shrunken log2 fold change” value was -0.0307.

Regarding RRIRERPPRLPRPRPRPTFRPRP, the “shrunken log2 fold change” value was -0.00937.

Consider RRIRRRPPRLPRPRPRPQCCPRP, for which the “shrunken log2 fold change” value worked out at 0.49.

On to RRIRCRPPRLPRPRPRPCRGPRP, for which the “shrunken log2 fold change” value was -0.243.

As to RRIRERPPRLPRPRPRPVNHPRP, the “shrunken log2 fold change” value was -0.229.

Turning to RRIRMRPPRLPRPRPRPTCVPRP, the “shrunken log2 fold change” value is 0.424.

On to RRIRNRPPRLPRPRPRPTHHPRP, for which the “shrunken log2 fold change” value is -0.0659.

Take RRIRLRPPRLPRPRPRPRVRPRP: the “shrunken log2 fold change” value turned out to be 0.325.

For the sequence RRIRTRPPRLPRPRPRPNMFPRP, the “shrunken log2 fold change” value is -0.315.

In the case of RRIRIRPPRLPRPRPRPQGEPRP, the “shrunken log2 fold change” value is -0.0606.

For RRIRNRPPRLPRPRPRPSYCPRP, the “shrunken log2 fold change” value is -0.267.

For the sequence RRIRYRPPRLPRPRPRPVHYPRP, the “shrunken log2 fold change” value is -0.0657.

RRIRDRPPRLPRPRPRPRAQPRP: the “shrunken log2 fold change” value was found to be 0.457.

Consider RRIRLRPPRLPRPRPRPGDGPRP, for which the “shrunken log2 fold change” value stood at 0.869.

Turning to RRIRWRPPRLPRPRPRPLMFPRP, the “shrunken log2 fold change” value was -0.122.

As to RRIRHRPPRLPRPRPRPNPQPRP, the “shrunken log2 fold change” value is -0.00216.

For the sequence RRIRARPPRLPRPRPRPDWLPRP, the “shrunken log2 fold change” value was found to be 0.432.

In the case of RRIRTRPPRLPRPRPRPRERPRP, the “shrunken log2 fold change” value was determined as 0.112.

For the sequence RRIRNRPPRLPRPRPRPTIGPRP, the “shrunken log2 fold change” value was -0.00466.

Consider RRIRERPPRLPRPRPRPEWAPRP, for which the “shrunken log2 fold change” value is 0.103.
